{"source": "paper doi:10.1101/2023.05.28.542642", "about": "(bioRxiv, 2023)", "target": "calmodulin (recombinant bovine CaM) (bovine, UniProt P62157 1-149)", "test": "fluorescence polarisation", "note": "Ends that are not written are not given here."}
{"binder": "{BODIPY TR‑X}-KKKKKRFSFKKSFKLSGFSFKKNKK", "note": "[MARCKS effector domain (aa 151-175) labeled with BODIPY TR]", "values": [{"measurement": "binding result", "value": "binds"}]}
